Test [1] concerns the target T1, human IL-18 binding protein (IL-18BP) (human, UniProt O95998 31-194).
T1 construct: also called hu IL-18BP; hIL18BP
T1 sequence (looked up): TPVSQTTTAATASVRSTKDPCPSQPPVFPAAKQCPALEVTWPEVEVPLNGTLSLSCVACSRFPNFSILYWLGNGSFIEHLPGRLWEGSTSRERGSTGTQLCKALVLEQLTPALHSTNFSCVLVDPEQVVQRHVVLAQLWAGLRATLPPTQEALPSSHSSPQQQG
The test is described as follows: Octet BLI. The method, then: Octet 96red instrument was used to determine affinities of IL18 proteins to BP or receptors. 5-10 ug/ml analyte proteins were used for loading on Sartorius tips (AHC or SA). […] 120-180 s loading, 200 s association and 800 s dissociation were used for kinetics. 3-7 data points were used to calculate affinities.
Select G3/K53-substitution containing IL-18 variants and select G3/K53/N91-substitution containing TL-18 variants were tested for activity in the HEK-blue activity assay and for binding affinity to IL-18BP. As shown in the data of Table 15 and Table 16 below, each variant had similar or better activity than WT IL-18, and retained substantial activity in the presence of IL-18BP.

Test [2] deals with T2, IL-18 receptor (IL-18Rα and IL-18Rβ) (UniProt Q13478 19-541; O95256 20-599, limits assumed).
T2 sequence (looked up) 1: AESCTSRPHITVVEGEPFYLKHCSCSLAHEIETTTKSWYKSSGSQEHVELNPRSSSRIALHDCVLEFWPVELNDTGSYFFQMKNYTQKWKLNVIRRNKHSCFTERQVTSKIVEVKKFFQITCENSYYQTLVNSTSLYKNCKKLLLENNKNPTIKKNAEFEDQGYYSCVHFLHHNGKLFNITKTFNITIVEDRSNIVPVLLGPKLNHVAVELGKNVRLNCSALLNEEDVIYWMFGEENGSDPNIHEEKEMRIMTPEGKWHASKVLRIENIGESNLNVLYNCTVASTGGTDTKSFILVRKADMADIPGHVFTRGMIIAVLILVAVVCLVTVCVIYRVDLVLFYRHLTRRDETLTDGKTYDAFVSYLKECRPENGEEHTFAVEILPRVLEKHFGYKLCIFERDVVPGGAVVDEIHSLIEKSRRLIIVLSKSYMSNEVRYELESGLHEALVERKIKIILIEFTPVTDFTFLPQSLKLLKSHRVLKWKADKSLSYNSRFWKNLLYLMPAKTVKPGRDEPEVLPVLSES
T2 sequence (looked up) 2: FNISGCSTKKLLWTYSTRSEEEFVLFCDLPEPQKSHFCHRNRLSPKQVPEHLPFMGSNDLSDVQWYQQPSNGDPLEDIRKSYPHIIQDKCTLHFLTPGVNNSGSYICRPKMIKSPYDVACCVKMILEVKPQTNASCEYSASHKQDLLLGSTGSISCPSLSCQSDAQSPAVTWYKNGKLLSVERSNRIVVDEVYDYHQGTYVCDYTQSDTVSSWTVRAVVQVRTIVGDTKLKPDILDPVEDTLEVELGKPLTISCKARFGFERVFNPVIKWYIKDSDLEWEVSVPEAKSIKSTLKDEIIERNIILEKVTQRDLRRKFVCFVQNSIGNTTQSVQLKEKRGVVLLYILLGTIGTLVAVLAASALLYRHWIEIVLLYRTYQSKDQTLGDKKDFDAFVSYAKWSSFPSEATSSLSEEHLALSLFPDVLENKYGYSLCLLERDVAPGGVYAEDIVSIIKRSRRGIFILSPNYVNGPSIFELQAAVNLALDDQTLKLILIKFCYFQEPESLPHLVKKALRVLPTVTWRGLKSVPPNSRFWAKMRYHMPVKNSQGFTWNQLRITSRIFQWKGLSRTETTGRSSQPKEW
The test is described as follows: cell-based or functional assay.

In test [3] the target is T1, human IL-18 binding protein (IL-18BP). The test is described as follows: cell-based or functional assay.
The target of test [4] is T3, IL-18 receptors on HEK-Blue IL-18 reporter cells (InvivoGen) (UniProt Q13478 19-541; O95256 20-599).
T3 sequence (looked up) 1: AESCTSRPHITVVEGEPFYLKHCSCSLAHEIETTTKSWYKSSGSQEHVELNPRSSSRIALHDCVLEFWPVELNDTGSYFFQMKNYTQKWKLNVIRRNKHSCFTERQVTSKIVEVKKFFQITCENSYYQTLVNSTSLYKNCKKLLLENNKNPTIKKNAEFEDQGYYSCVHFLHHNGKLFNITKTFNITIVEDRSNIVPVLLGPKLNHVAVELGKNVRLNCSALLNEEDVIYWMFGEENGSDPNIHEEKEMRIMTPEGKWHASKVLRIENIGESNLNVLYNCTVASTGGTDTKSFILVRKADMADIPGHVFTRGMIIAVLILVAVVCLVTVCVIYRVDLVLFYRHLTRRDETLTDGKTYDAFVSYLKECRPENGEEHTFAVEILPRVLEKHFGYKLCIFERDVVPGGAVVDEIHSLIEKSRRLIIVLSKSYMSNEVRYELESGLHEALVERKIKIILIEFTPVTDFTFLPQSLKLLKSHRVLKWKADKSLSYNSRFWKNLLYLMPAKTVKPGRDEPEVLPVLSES
T3 sequence (looked up) 2: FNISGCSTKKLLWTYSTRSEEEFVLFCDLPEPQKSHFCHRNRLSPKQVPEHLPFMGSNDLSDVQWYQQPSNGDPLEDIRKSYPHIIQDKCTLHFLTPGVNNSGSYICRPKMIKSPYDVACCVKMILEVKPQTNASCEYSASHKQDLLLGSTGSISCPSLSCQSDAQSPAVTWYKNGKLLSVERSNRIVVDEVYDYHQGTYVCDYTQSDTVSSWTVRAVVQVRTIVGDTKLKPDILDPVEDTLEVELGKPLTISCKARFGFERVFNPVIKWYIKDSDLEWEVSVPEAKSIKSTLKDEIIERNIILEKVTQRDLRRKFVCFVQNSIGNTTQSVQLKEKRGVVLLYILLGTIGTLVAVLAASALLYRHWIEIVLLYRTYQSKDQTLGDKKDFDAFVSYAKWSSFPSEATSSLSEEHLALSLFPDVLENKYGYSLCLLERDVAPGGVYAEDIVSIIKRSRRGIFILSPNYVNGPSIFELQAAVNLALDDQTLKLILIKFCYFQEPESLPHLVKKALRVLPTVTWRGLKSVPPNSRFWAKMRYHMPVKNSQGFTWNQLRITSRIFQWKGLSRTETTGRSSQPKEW
Kind of test: cell-based or functional assay.

Test [5] has as its target T1, human IL-18 binding protein (IL-18BP). Kind of test: cell-based or functional assay. The source holds these as a separate data set.
The target of test [6] is T3, IL-18 receptors on HEK-Blue IL-18 …. The test is described as follows: cell-based or functional assay. The source holds these as a separate data set.

Data on 4 molecules can be found in patent US20240182536A1 (MURAL ONCOLOGY, published 2024).

Like-named read-outs stand apart in the source and are kept apart here.

B1: IL-18 variant G3R, N91M, K53S (ligand)
chain: YFRKLESKLSVIRNLNDQVLFIDQGNRPLFEDMTDSDMRDNAPRTIFIISMYSDSQPRGMAVTISVKSEKISTLSSENKIISFKEMNPPDMIKDTKSDIIFFQRSVPGHDNKMQFESSSYEGYFLASEKERDLFKLILKKEDELGDRSIMFTVQNED
notes: also called G3R/K53S/N91M
In test [1], B1 came in with a Kd of 3.3 nM, a koff of 0.000735 s⁻¹ and a kon of 223000 M⁻¹ s⁻¹. In addition, in test [2], the “EC50 pM, IFN gamma expression in PBMCs” value is 73.9 pM. In addition, the “HEK-Blue Ec50 (pM), +IL-18BP (50 nM)” value in test [3] stood at 2.16 pM. Further, the “HEK-Blue Ec50 (pM), -IL-18BP” value in test [4] amounted to 0.12 pM.

B2: IL-18 variant G3H, N91V, K53S (ligand)
chain: YFHKLESKLSVIRNLNDQVLFIDQGNRPLFEDMTDSDMRDNAPRTIFIISMYSDSQPRGMAVTISVKSEKISTLSSENKIISFKEMNPPDVIKDTKSDIIFFQRSVPGHDNKMQFESSSYEGYFLASEKERDLFKLILKKEDELGDRSIMFTVQNED
notes: also called G3H/K53S/N91V
In test [1], B2 registered a Kd of 8.6 nM, a koff of 0.0031 s⁻¹ and a kon of 359000 M⁻¹ s⁻¹. Besides, the “EC50 pM, IFN gamma expression in PBMCs” value in test [2] turned out to be 222 pM. Also, the “HEK-Blue Ec50 (pM), +IL-18BP (50 nM)” value in test [3] is 2.51 pM. Further, in test [4], the “HEK-Blue Ec50 (pM), -IL-18BP” value was 0.94 pM.

B3: IL-18 variant G3S, K53S (ligand)
chain: YFSKLESKLSVIRNLNDQVLFIDQGNRPLFEDMTDSDMRDNAPRTIFIISMYSDSQPRGMAVTISVKSEKISTLSSENKIISFKEMNPPDNIKDTKSDIIFFQRSVPGHDNKMQFESSSYEGYFLASEKERDLFKLILKKEDELGDRSIMFTVQNED
As to B3, in test [1], binding was put at a Kd of 12 nM, the koff amounted to 0.00338 s⁻¹ and the kon turned out to be 283000 M⁻¹ s⁻¹. Also, the “HEK-Blue Ec50 (pM), +IL-18BP (50 nM)” value in test [5] stood at 4.43 pM. Moreover, the “HEK-Blue Ec50 (pM), -IL-18BP” value in test [6] came out at 2.06 pM.

B4: IL-18 variant G3F, K53S (ligand)
chain: YFFKLESKLSVIRNLNDQVLFIDQGNRPLFEDMTDSDMRDNAPRTIFIISMYSDSQPRGMAVTISVKSEKISTLSSENKIISFKEMNPPDNIKDTKSDIIFFQRSVPGHDNKMQFESSSYEGYFLASEKERDLFKLILKKEDELGDRSIMFTVQNED
As for B4, in test [1], binding was characterised by a dissociation constant (Kd) of 11.8 nM, the koff came to 0.0048 s⁻¹ and the kon was 408000 M⁻¹ s⁻¹. Further, the “HEK-Blue Ec50 (pM), +IL-18BP (50 nM)” value in test [5] is 5.88 pM. Further, the “HEK-Blue Ec50 (pM), -IL-18BP” value in test [6] was determined as 3.39 pM.
